Reference: paper PMC10558600 (Heliyon, 2023)
Like-named read-outs stand apart in the source and are kept apart here.

Legend:
Assay in all cases: ELISA
[1] = biological target: T1, Cry4Ba-domain III fragment (Bacillus thuringiensis subsp. …)
T1 sequence (P05519 whole entry, looked up): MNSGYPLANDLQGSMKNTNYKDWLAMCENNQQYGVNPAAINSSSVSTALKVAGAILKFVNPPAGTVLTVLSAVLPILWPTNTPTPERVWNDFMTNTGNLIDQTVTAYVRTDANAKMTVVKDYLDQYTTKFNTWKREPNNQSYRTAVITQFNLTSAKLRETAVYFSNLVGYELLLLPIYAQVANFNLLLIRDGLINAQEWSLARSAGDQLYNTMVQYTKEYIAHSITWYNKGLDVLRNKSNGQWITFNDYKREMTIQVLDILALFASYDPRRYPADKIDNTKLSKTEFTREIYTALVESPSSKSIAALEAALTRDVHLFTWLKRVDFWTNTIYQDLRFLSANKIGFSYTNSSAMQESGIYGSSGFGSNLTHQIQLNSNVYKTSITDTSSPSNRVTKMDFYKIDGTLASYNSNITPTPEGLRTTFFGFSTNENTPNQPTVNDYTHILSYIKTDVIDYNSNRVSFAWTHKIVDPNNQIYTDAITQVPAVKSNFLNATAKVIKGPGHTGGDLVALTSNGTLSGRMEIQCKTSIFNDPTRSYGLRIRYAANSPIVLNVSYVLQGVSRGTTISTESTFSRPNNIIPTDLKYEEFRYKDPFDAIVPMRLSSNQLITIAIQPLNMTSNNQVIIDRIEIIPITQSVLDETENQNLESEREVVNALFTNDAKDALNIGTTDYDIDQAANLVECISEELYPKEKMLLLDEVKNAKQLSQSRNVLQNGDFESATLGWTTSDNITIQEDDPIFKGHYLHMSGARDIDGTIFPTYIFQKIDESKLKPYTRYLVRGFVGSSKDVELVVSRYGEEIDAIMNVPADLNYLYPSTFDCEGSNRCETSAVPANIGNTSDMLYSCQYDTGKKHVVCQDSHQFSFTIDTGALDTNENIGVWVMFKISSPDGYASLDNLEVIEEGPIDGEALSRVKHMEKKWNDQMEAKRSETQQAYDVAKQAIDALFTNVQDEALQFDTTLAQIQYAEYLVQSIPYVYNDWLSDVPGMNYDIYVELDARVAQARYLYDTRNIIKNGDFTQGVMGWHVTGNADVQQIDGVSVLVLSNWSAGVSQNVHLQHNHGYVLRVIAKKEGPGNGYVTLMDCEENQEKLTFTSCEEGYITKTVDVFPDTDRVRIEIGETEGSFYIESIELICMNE

[2] = biological target: T2, Cry4Ba-domain II fragment (Bacillus thuringiensis subsp. …, UniProt P05519 286-470)
T2 sequence: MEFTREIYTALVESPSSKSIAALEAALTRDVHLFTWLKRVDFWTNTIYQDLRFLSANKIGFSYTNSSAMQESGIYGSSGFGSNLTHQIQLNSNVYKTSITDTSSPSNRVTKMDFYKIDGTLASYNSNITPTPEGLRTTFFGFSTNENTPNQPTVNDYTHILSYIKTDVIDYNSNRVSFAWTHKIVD

[3] = biological target: T2, Cry4Ba-domain II fragment; remark: listed apart in the source

B1: Aedes aegypti membrane-bound alkaline phosphatase (Aa-mALP) (receptor)
chain: MTLYRSRAANMSRLRFDVSVWVMVTMCVLSARNCWAQGEYDPNYWNQQAHDLLFEKKDYTMQKVNIAKNIIVFVGSGMSQATVTAARTHKGGENATFPFEQLKWSGNARTYCVDSRVPDSACASTAFLTGVKSNLGTVAVHPNVKRGDCVATSDKVKQLESIAKWALAEGRVVGFATTSRVTAGSNAALYAHSADKDWENDASVTAAGCNATQVNDIAYQLINGDVGKHFKVIFGGGRKNFIPNTETDESGARGLRTDGKNLIQEWKESKTGNAVYITTNSELGALNTTNIDYLMGLFSYDRLPYAADMGEEPNKETPPLVRMVHYSLEMLQKKEHSGGFLLFVEDGNIQEAHKENKPIKAFEQVKHYANAFNMAHMMVSEANTLLISMNDVGSTLSIPGYPARDTDILTEAGTSDKDSKPYLSLAYATGPSYDSYYQPNEGRVNPLAVLQGTPTQKEQTCSAAVPMSEGVNGGEDASVYATGPWAFMFSGGYEQNFIAHAISFASCITDVCGGASSVVVSSAALLLALMVRVFA
- Kd [1]: 118 ± 8.1 nM
- Kd [2]: 118 nM
- Kd [3]: 116 nM
